To fix the notation:
B1: CPEB3 Ribozyme (parent)
chain: GGGGGCCACAGCAGAAGCGUUCACGUCGCGGCCCCUGUCAGAUUCUGGUGAAUCUGCGAAUUCUGCUGU

Variants of B1 are the subject of this data set. Briefly: self-cleavage, relative activity (ratio to wild type); higher = more cleavage; co-transcriptional.
On to G11U A52G, for which the self-cleavage turned out to be 0.901.

Take G11U U49C: the self-cleavage is 0.847.

Take G11U U49G: the self-cleavage turned out to be 0.98.

In the case of G11U U49A, the self-cleavage stood at 0.941.

G11U U61G: the self-cleavage worked out at 0.348.

G11U U61A: the self-cleavage worked out at 0.412.

C12A A60U: the self-cleavage amounted to 0.257.

Turning to C12A A60G, the self-cleavage turned out to be 0.372.

For the variant G11U C24G, the self-cleavage amounted to 0.177.

For the variant G11U C24U, the self-cleavage came out at 0.422.

Take G11U G65C: the self-cleavage came out at 0.574.

Regarding G11U G65U, the self-cleavage is 0.68.

As for G11U U26A, the self-cleavage came to 0.552.

For the variant G11U U26C, the self-cleavage is 0.712.

As for C12A C29U, the self-cleavage came out at 0.135.

On to C12A C29G, for which the self-cleavage came out at 0.105.

As to G11U G30C, the self-cleavage came to 0.455.

Consider G11U G30A, for which the self-cleavage came out at 0.589.

In the case of C12A C35U, the self-cleavage came to 0.624.

For C12A C35A, the self-cleavage worked out at 0.149.

Turning to G11U G37C, the self-cleavage stood at 0.213.

Regarding G11U G37U, the self-cleavage came out at 0.165.

Take G11U G37A: the self-cleavage was 0.145.

As to G11U C35G, the self-cleavage turned out to be 0.341.

In the case of G11U C35U, the self-cleavage stood at 0.815.

Take G11U A42C: the self-cleavage was determined as 0.342.

Regarding G11U A42G, the self-cleavage was determined as 0.476.

Turning to G11U U43A, the self-cleavage turned out to be 0.392.

Take G11U U43G: the self-cleavage turned out to be 0.302.

Take G11U U69A: the self-cleavage was 0.958.

G11U U69G: the self-cleavage amounted to 0.968.

In the case of G11U G28C, the self-cleavage stood at 0.116.

As to G11U G28U, the self-cleavage worked out at 0.192.

Regarding G11U G41A, the self-cleavage came to 0.217.

G11U G41U: the self-cleavage is 0.359.

Take G11U G50C: the self-cleavage is 0.797.

With G11U G50U, the self-cleavage is 0.916.

For the variant G11U C18U, the self-cleavage stood at 0.372.

Regarding G11U C18G, the self-cleavage was found to be 0.0807.

With G11U C18A, the self-cleavage was found to be 0.0522.

Regarding G11U U55G, the self-cleavage turned out to be 0.225.

Turning to G11U U62C, the self-cleavage is 0.365.

Take G11U U62A: the self-cleavage was 0.38.

Turning to G11U U62G, the self-cleavage turned out to be 0.381.

As for G11U C12A, the self-cleavage stood at 0.549.

Take G11U C12G: the self-cleavage is 0.577.

In the case of G11U C12U, the self-cleavage stood at 0.44.

Consider G11U A51G, for which the self-cleavage was found to be 0.921.

Turning to G11U A51U, the self-cleavage worked out at 0.785.

As to C12A A23U, the self-cleavage was found to be 0.742.

As for C12A A23G, the self-cleavage was found to be 0.42.

With G11U U36C, the self-cleavage worked out at 0.59.

As to G11U U36G, the self-cleavage amounted to 0.167.

For G11U U38C, the self-cleavage amounted to 0.756.

Regarding G11U C27U, the self-cleavage was 0.148.

Turning to G11U C27G, the self-cleavage is 0.134.

On to G11U C27A, for which the self-cleavage amounted to 0.16.

As to C12A C39A, the self-cleavage amounted to 0.228.

Consider C12A C39G, for which the self-cleavage was determined as 0.346.

In the case of C12A C39U, the self-cleavage was 0.355.

Regarding G11U C57A, the self-cleavage was 0.31.

For G11U C57G, the self-cleavage turned out to be 0.204.

Take G11U C57U: the self-cleavage was 0.215.

As to C12A A59C, the self-cleavage is 0.347.

C12A A59G: the self-cleavage was 0.653.

On to C12A A59U, for which the self-cleavage stood at 0.343.

For G11U U20C, the self-cleavage was found to be 0.131.

For the variant G11U U20G, the self-cleavage was found to be 0.121.

Turning to G11U U20A, the self-cleavage is 0.119.

With G11U U67C, the self-cleavage was found to be 0.96.

With G11U U67A, the self-cleavage worked out at 0.913.

Regarding G11U U67G, the self-cleavage is 0.949.

Turning to C12A A51G, the self-cleavage amounted to 0.805.

Take G11U G56A: the self-cleavage was found to be 0.701.

As to G11U G56U, the self-cleavage is 0.404.

G11U G56C: the self-cleavage was determined as 0.367.

Regarding C12A C24A, the self-cleavage was determined as 0.236.

As to C12A C24U, the self-cleavage came to 0.302.

Turning to C12A C24G, the self-cleavage turned out to be 0.138.

Take G11U G48C: the self-cleavage stood at 0.878.

For the variant G11U G14U, the self-cleavage was 0.144.

Take G11U G14C: the self-cleavage was 0.161.

C12A C33A: the self-cleavage was determined as 0.553.

For C12A C33G, the self-cleavage is 0.395.

Turning to C12A C27U, the self-cleavage turned out to be 0.117.

Take C12A C27A: the self-cleavage was 0.145.

As to G11U G31C, the self-cleavage amounted to 0.138.

In the case of G11U G31U, the self-cleavage stood at 0.499.

For C12A A15G, the self-cleavage came to 0.514.

C12A A15C: the self-cleavage was 0.274.

For C12A A15U, the self-cleavage stood at 0.106.

As to C12A C45A, the self-cleavage came to 0.579.

For the variant C12A A16C, the self-cleavage amounted to 0.128.

On to C12A A16G, for which the self-cleavage came out at 0.385.

For the variant G11U C63U, the self-cleavage came out at 0.498.

Consider G11U C63G, for which the self-cleavage was 0.231.

Take G11U G17A: the self-cleavage was 0.141.

On to G11U G17U, for which the self-cleavage was determined as 0.148.

For the variant G11U G17C, the self-cleavage stood at 0.129.

Consider C12A A52U, for which the self-cleavage stood at 0.603.

As to C12A A52G, the self-cleavage stood at 0.788.

In the case of C12A A52C, the self-cleavage amounted to 0.571.

As for C12A A13G, the self-cleavage is 0.735.

For C12A A13C, the self-cleavage is 0.199.

For the variant C12A A42C, the self-cleavage is 0.413.

On to C12A A42G, for which the self-cleavage worked out at 0.41.

Consider C12A C18G, for which the self-cleavage amounted to 0.113.

On to C12A C18U, for which the self-cleavage amounted to 0.143.

Turning to G11U G68C, the self-cleavage turned out to be 0.943.

As for G11U G68U, the self-cleavage was 0.856.

As to G11U A23C, the self-cleavage amounted to 0.685.

For the variant G11U A23G, the self-cleavage stood at 0.651.

Regarding G11U A23U, the self-cleavage came to 0.945.

On to G11U U64A, for which the self-cleavage is 0.467.

Regarding G11U A59G, the self-cleavage turned out to be 0.901.

As to G11U C33G, the self-cleavage was 0.619.

Consider G11U C33A, for which the self-cleavage amounted to 0.765.

Consider G11U G25U, for which the self-cleavage worked out at 0.136.

Turning to G11U G25A, the self-cleavage amounted to 0.141.

C12A C34G: the self-cleavage was determined as 0.495.

Consider C12A C34A, for which the self-cleavage is 0.448.

Regarding G11U G47A, the self-cleavage was 0.897.

For the variant G11U G47C, the self-cleavage was 0.954.

Turning to G11U C66A, the self-cleavage worked out at 0.918.

In the case of G11U C66G, the self-cleavage turned out to be 0.949.

As for G11U C66U, the self-cleavage is 0.955.

For the variant C12A C22U, the self-cleavage came to 0.111.

For C12A C22A, the self-cleavage was 0.144.

With C12A C22G, the self-cleavage stood at 0.129.

Turning to G11U G58A, the self-cleavage is 0.846.

As to G11U G58U, the self-cleavage is 0.891.

For the variant G11U G58C, the self-cleavage came out at 0.857.

In the case of C12A A40C, the self-cleavage stood at 0.209.

On to C12A A40G, for which the self-cleavage was 0.437.

As to C12A A40U, the self-cleavage came to 0.218.

In the case of G11U U44G, the self-cleavage is 0.734.

With G11U U44C, the self-cleavage came out at 0.539.

As for G11U U44A, the self-cleavage is 0.677.

On to G11U G19C, for which the self-cleavage was found to be 0.135.

As for G11U G19U, the self-cleavage worked out at 0.118.

Consider G11U G19A, for which the self-cleavage is 0.115.

With G11U C29G, the self-cleavage is 0.149.

G11U C29A: the self-cleavage was 0.202.

With G11U C29U, the self-cleavage was determined as 0.142.

Turning to G11U C34G, the self-cleavage worked out at 0.635.

As to G11U C34U, the self-cleavage was 0.915.

G11U C22G: the self-cleavage came to 0.112.

Consider G11U C22U, for which the self-cleavage stood at 0.179.

Regarding G11U C22A, the self-cleavage was 0.129.

Turning to C12A C32G, the self-cleavage amounted to 0.118.

Turning to C12A C32U, the self-cleavage was found to be 0.79.

In the case of C12A C32A, the self-cleavage was 0.402.

In the case of G11U C39A, the self-cleavage was found to be 0.36.

With G11U C39G, the self-cleavage was 0.536.

As for G11U C39U, the self-cleavage came to 0.527.

Turning to G11U U53G, the self-cleavage is 0.487.

Turning to G11U U53C, the self-cleavage is 0.329.

On to G11U C32U, for which the self-cleavage was determined as 0.854.

With G11U C32G, the self-cleavage worked out at 0.295.

On to G11U U46A, for which the self-cleavage is 0.864.

In the case of G11U U46G, the self-cleavage was found to be 0.901.

Turning to G11U U46C, the self-cleavage worked out at 0.79.

Take G11U C45U: the self-cleavage came out at 0.893.

For G11U C45A, the self-cleavage is 0.732.

As for G11U A40C, the self-cleavage is 0.213.

With G11U A40G, the self-cleavage is 0.668.

G11U U21A: the self-cleavage worked out at 0.895.

The values above are taken from the RNAGym collection of RNA variant scans (doi:10.7554/elife.80360).
